Data from EP1452542A2 (Novartis AG, dated 2004).
Numbering of substitutions follows the chain as printed.

B1: reshaped human C21 antibody C21-H3/L1 (antibody, V domains shown)
VH: QVQLVQSGAEVKKPGASVKVSCKASGYTFSMYWLEWVRQAPGHGLEWVGEISPGTFTTNYNEKFKARATFTADTSTNTAYMELSSLRSEDTAVYYCARFSHFSGSNYDYFDYWGQGTLVTVSS
VL: DILLTQSPGTLSLSPGERATLSCRASQSIGTNIHWYQQKPGQAPRLLIKYASESISGIPSRFSGSGSGTDFTLTISRLEPEDFAMYYCQQSDSWPTTFGQGTKVEIK
B2: reshaped human C21 antibody C21-H3/L3 (antibody, V domains shown)
VH: B1 VH
VL: B1 VL with D1E, L3V
B3: reshaped human C21 antibody C21-Hay3/L2 (antibody, V domains shown)
VH: B1 VH with H43Q, G44R, V48M, T76A, N77S
VL: B1 VL with S60D
B4: reshaped human C21 antibody C21-Hay3/L1 (antibody, V domains shown)
VH: B1 VH with H43Q, G44R, V48M, T76A, N77S
VL: B1 VL
B5: reshaped human C21 antibody C21-H3/L2 (antibody, V domains shown)
VH: B1 VH
VL: B1 VL with S60D
B6: reshaped human C21 antibody C21-Hay3/L3 (antibody, V domains shown)
VH: B1 VH with H43Q, G44R, V48M, T76A, N77S
VL: B1 VL with D1E, L3V
B7: reshaped human C21 antibody C21-H1/L3 (antibody, V domains shown)
VH: B1 VH with R38K, A40R, R67K, R87T
VL: B1 VL with D1E, L3V
notes: C21-L3 is C21-L1 with Glu instead of Asp at position 1 and Val instead of Leu at position 3
B8: reshaped human C21 antibody C21-H1/L1 (antibody, V domains shown)
VH: B1 VH with R38K, A40R, R67K, R87T
VL: B1 VL
B9: reshaped human C21 antibody C21-H1/L2 (antibody, V domains shown)
VH: B1 VH with R38K, A40R, R67K, R87T
VL: B1 VL with S60D
notes: C21-L2 is C21-L1 with aspartic acid instead of serine at position 60

Legend:
[1] = target: T1, human IgE; monoclonal antibody SE44 (human, UniProt P01854-1 1-428); assay: BIAcore SPR, Kaff from kass and kdiss
T1 construct: domain: human e constant region; also called IgE (SE44); human monoclonal IgE (SE44)

[2] = target: T1, human IgE; monoclonal antibody SE44; assay: BIAcore SPR, antibody captured via anti-human IgG, IgE SE44 3.125-25 nM in flow, 25°C
[3] = target: T1, human IgE; monoclonal antibody SE44; assay: BIAcore SPR, antibody captured via anti-human IgG, IgE SE44 25 nM, dissociation in HBS, 25°C

| Binder | Ka [1] | kon [2] | koff [3] |
| --- | --- | --- | --- |
| B1 | 1.32e+10 M⁻¹ | 250000 M⁻¹ s⁻¹ | 1.9e-05 s⁻¹ |
| B2 | 7.4e+09 M⁻¹ | 260000 M⁻¹ s⁻¹ | 3.5e-05 s⁻¹ |
| B3 | 8.1e+09 M⁻¹ | 250000 M⁻¹ s⁻¹ | 3.1e-05 s⁻¹ |
| B4 | 6.1e+09 M⁻¹ | 250000 M⁻¹ s⁻¹ | 4.1e-05 s⁻¹ |
| B5 | 5.7e+09 M⁻¹ | 250000 M⁻¹ s⁻¹ | 4.4e-05 s⁻¹ |
| B6 | 1.6e+09 M⁻¹ | 260000 M⁻¹ s⁻¹ | 0.000159 s⁻¹ |
| B7 | 4.7e+09 M⁻¹ | 290000 M⁻¹ s⁻¹ | 6.2e-05 s⁻¹ |
| B8 | 8.7e+09 M⁻¹ | 260000 M⁻¹ s⁻¹ | 3e-05 s⁻¹ |
| B9 | 4.9e+09 M⁻¹ | 280000 M⁻¹ s⁻¹ | 5.7e-05 s⁻¹ |
